Consider two substances from publication PMC4877575.

The target in assay [1] is polarity-marked microtubules (polymerised alpha-beta tubulin) (porcine) (UniProt P02554). The assay can be described thus: single molecule fluorescence motility assay; purified Cin8-3GFP-6His variants on polarity-marked Taxol MTs; MB-45 (MB with 45 mM NaCl, IS = 0.187), 4 mM ATP; 90 s recordings.
For assay [2] the target is unchanged. The assay can be described thus: single molecule fluorescence motility assay; purified Cin8-3GFP-6His variants on polarity-marked Taxol MTs; MB-90 (MB with 90 mM NaCl, IS = 0.232), 4 mM ATP; 90 s recordings.
For assay [3] the target is unchanged. The assay can be described thus: single molecule fluorescence motility assay; purified Cin8-3GFP-6His variants on polarity-marked Taxol MTs; MB-135 (MB with 135 mM NaCl, IS = 0.277), 4 mM ATP; 90 s recordings.
Assay [4] has the same target. The assay can be described thus: single molecule fluorescence motility assay; Cin8-3GFP variants in whole cell extract on polarity-marked Taxol MTs; MB-30 (MB with 30 mM NaCl, IS = 0.172), 4 mM ATP; 90 s recordings, 1 s frames.
Assay [5] has the same target. The assay can be described thus: single molecule fluorescence motility assay; Cin8-3GFP variants in whole cell extract on polarity-marked Taxol MTs; MB-80 (MB with 80 mM NaCl, IS = 0.222), 4 mM ATP; 90 s recordings, 1 s frames.

As to “purified wild type Cin8-3GFP-6His (plasmid pOS2) (from UniProt P27895 1-1000) (natural protein)”, the % of moving molecules with interaction times longer than 90 s in assay [1] was found to be 71%; in assay [2] it was 53%; in assay [3] it was 14%.
As for “wild type Cin8-3GFP (whole cell extract, strain LGY 2055) (from UniProt P27895 1-1000) (natural protein)”, the values for the % of moving molecules with interaction times longer than 90 s in assay [4] and in assay [5] were 75% and 21%, respectively.
